Assay results reported in the Immune Epitope Database (IEDB).

Tests used:
[1] = biological target: HLA-A*02:01; test: IEDB peptide-MHC binding, purified MHC/direct/fluorescence; filed as Kd, often an IC50 or EC50 that approximates it; ≥ and ≤ were set here for values at or beyond the usual limits of such assays
[2] = biological target: HLA-A*03:01; test: as above
[3] = biological target: HLA-A*24:03; test: as above
[4] = biological target: HLA-A*26:01; test: as above
[5] = biological target: HLA-A*30:01; test: as above
[6] = biological target: HLA-A*69:01; test: as above
[7] = biological target: HLA-B*07:02; test: as above
[8] = biological target: HLA-B*08:01; test: as above
[9] = biological target: HLA-B*15:01; test: as above
[10] = biological target: HLA-B*27:05; test: as above
[11] = biological target: HLA-B*40:01; test: as above
[12] = biological target: HLA-B*44:02; test: as above
[13] = biological target: HLA-B*58:01; test: as above
[14] = biological target: HLA-A*01:01; test: as above
[15] = biological target: HLA-A*11:01; test: as above; details: source organism: Escherichia coli
[16] = biological target: HLA-A*31:01; test: as above; details: source organism: Escherichia coli
[17] = biological target: HLA-A*23:01; test: IEDB peptide-MHC binding, purified MHC/competitive/fluorescence; filed as Kd, often an IC50 or EC50 that approximates it; ≥ and ≤ were set here for values at or beyond the usual limits of such assays
[18] = biological target: HLA-A*02:01; test: IEDB peptide-MHC binding, purified MHC/competitive/radioactivity; ≥ and ≤ were set here for values at or beyond the usual limits of such assays
[19] = biological target: HLA-B*08:01; test: IEDB peptide-MHC binding, purified MHC/competitive/fluorescence; filed as Kd, often an IC50 or EC50 that approximates it; ≥ and ≤ were set here for values at or beyond the usual limits of such assays; details: source organism: Escherichia coli 536
[20] = biological target: HLA-B*15:42; test: as above; details: source organism: Escherichia coli 536
[21] = biological target: HLA-B*35:01; test: as above
[22] = biological target: HLA-B*45:06; test: as above; details: source organism: Escherichia coli 536
[23] = biological target: HLA-B*51:01; test: as above
[24] = biological target: HLA-B*83:01; test: as above; details: source organism: Escherichia coli 536
[25] = biological target: HLA-B*57:01; test: IEDB peptide-MHC binding, purified MHC/direct/fluorescence; filed as Kd, often an IC50 or EC50 that approximates it; ≥ and ≤ were set here for values at or beyond the usual limits of such assays
[26] = biological target: HLA-A*02:12; test: as above; details: source organism: Ravn virus - Ravn, Kenya, 1987
[27] = biological target: HLA-A*29:02; test: as above; details: source organism: Ravn virus - Ravn, Kenya, 1987
[28] = biological target: HLA-B*15:17; test: as above; details: source organism: Ravn virus - Ravn, Kenya, 1987
[29] = biological target: HLA-B*18:01; test: as above; details: source organism: Ravn virus - Ravn, Kenya, 1987
[30] = biological target: HLA-B*51:01; test: as above
[31] = biological target: HLA-B*35:01; test: as above; details: source organism: West Nile virus
[32] = biological target: HLA-A*02:01; test: IEDB peptide-MHC binding, purified MHC/competitive/fluorescence; filed as Kd, often an IC50 or EC50 that approximates it; ≥ and ≤ were set here for values at or beyond the usual limits of such assays; details: source organism: Vibrio antiquarius
[33] = biological target: HLA-A*02:12; test: as above; details: source organism: Vibrio antiquarius
[34] = biological target: HLA-A*03:01; test: as above; details: source organism: Vibrio antiquarius
[35] = biological target: HLA-A*24:03; test: as above; details: source organism: Vibrio antiquarius
[36] = biological target: HLA-A*26:01; test: as above; details: source organism: Vibrio antiquarius
[37] = biological target: HLA-A*29:02; test: as above; details: source organism: Vibrio antiquarius
[38] = biological target: HLA-B*15:01; test: as above
[39] = biological target: HLA-B*15:17; test: as above; details: source organism: Vibrio antiquarius
[40] = biological target: HLA-B*18:01; test: as above; details: source organism: Vibrio antiquarius
[41] = biological target: HLA-B*27:03; test: as above; details: source organism: Vibrio antiquarius
[42] = biological target: HLA-B*39:01; test: as above; details: source organism: Vibrio antiquarius
[43] = biological target: HLA-B*46:01; test: as above; details: source organism: Vibrio antiquarius
[44] = biological target: HLA-B*57:01; test: as above; details: source organism: Vibrio antiquarius
[45] = source organism: Yersinia pestis Nepal516
[46] = source organism: Yersinia pestis
[47] = source organism: Salmonella enterica
[48] = source organism: Escherichia coli
[49] = source organism: Escherichia coli 536
[50] = source organism: West Nile virus
[51] = source organism: Mycobacterium tuberculosis variant bovis
[52] = source organism: Marburg virus - Musoke, Kenya, 1980
[53] = source organism: Ravn virus - Ravn, Kenya, 1987
[54] = source organism: Vibrio antiquarius

AFASLQDML showed a Kd [1, 45] of at least 20 µM, a Kd [2, 46] of at least 20 µM and a Kd [3, 46] of 1.28 µM. For the same sequence, the Kd [4, 45] was at least 20 µM, the Kd [5, 46] was at least 20 µM and the Kd [6, 45] was at least 20 µM. The Kd [7, 45] was at least 20 µM, the Kd [8, 45] was at least 20 µM and the Kd [9, 45] was at least 20 µM. The Kd [10, 45] was at least 20 µM, the Kd [11, 45] was at least 20 µM and the Kd [12, 45] was at least 20 µM. For the same sequence, the Kd [13, 45] was at least 20 µM.
Sequence ALMRWRHPR has a Kd [14, 47] of at least 20 µM, a Kd [1, 48] of 9.62 µM and a Kd [2, 48] of 0.0994 µM. The Kd [15] was 0.00936 µM, the Kd [3, 47] was at least 20 µM and the Kd [4, 47] was at least 20 µM. For the same sequence, the Kd [5, 48] was 0.00461 µM, the Kd [16] was 0.00544 µM and the Kd [6, 47] was at least 20 µM. The Kd [7, 47] was at least 20 µM, the Kd [8, 47] was at least 20 µM and the Kd [9, 47] was at least 20 µM. For the same sequence, the Kd [10, 48] was 0.237 µM, the Kd [11, 47] was at least 20 µM and the Kd [12, 47] was at least 20 µM. It also gave a Kd [13, 47] of at least 20 µM.
FFIQTDAAI gave a Kd ([17]; source organism: Paramagnetospirillum magnetotacticum MS-1) of 0.0017 µM.
GLGQVPLIV showed an IC50 ([18]; source organism: Homo sapiens) of 0.5 µM.
GLSRYVARLS showed an IC50 ([18]; source organism: Hepatitis B virus) of 0.877 µM.
For HPASRLFPF, the Kd [19] was 0.0434 µM, the Kd [20] was at least 5 µM and the Kd [21, 49] was 0.0002 µM. It also gave a Kd [22] of at least 5 µM, a Kd [23, 49] of at least 20 µM and a Kd [24] of 0.0534 µM.
In the case of LAALGDTAW, the Kd [25, 50] is reported as 6.18 µM and the Kd ([21]; source organism: Japanese encephalitis virus) is reported as 0.0892 µM.
Work on LLDGTATLRL yielded an IC50 ([18]; source organism: Homo sapiens) of 0.5 µM.
Sequence LYQKNIEHF has a Kd ([17]; source organism: Vibrio vulnificus YJ016) of at most 0.0001 µM.
In the case of MLAPSTLGY, the Kd [14, 51] is reported as 0.052 µM, the Kd [2, 51] is reported as 0.0345 µM and the Kd ([21]; source organism: Mycobacterium tuberculosis F11) is reported as at most 0.0001 µM.
NLFDWMHFL gave a Kd [1, 52] of at most 0.001 µM, a Kd [26] of 0.006 µM and a Kd [27] of 2.42 µM. It also gave a Kd [5, 53] of at least 20 µM, a Kd [6, 52] of 0.0025 µM and a Kd [7, 53] of at least 20 µM. The Kd [9, 53] was at least 20 µM, the Kd [28] was at least 20 µM and the Kd [29] was at least 20 µM. It also gave a Kd [11, 53] of at least 20 µM, a Kd [12, 53] of at least 20 µM and a Kd [30, 53] of at least 20 µM. The Kd [25, 53] was at least 20 µM and the Kd [13, 53] was at least 20 µM.
For PTLDKVLEV, the IC50 ([18]; source organism: Homo sapiens) was 2 µM.
Sequence QPAFMVASF has a Kd [31] of 0.007 µM and a Kd [30, 50] of at least 20 µM.
Work on RMYSPISIL yielded an IC50 ([18]; source organism: Human immunodeficiency virus 1) of 0.056 µM.
Work on VILGVLLLI yielded an IC50 ([18]; source organism: Homo sapiens) of 0.164 µM.
VTGCASLYV showed a Kd [32] of 0.0463 µM, a Kd [33] of 0.0368 µM and a Kd [34] of at least 20 µM. The Kd [17, 54] was at least 20 µM, the Kd [35] was at least 20 µM and the Kd [36] was at least 20 µM. For the same sequence, the Kd [37] was at least 20 µM, the Kd [38, 54] was at least 20 µM and the Kd [39] was at least 20 µM. For the same sequence, the Kd [40] was at least 20 µM, the Kd [41] was at least 20 µM and the Kd [42] was at least 20 µM. The Kd [43] was at least 20 µM, the Kd [23, 54] was at least 20 µM and the Kd [44] was at least 20 µM.
For YSRMLYIEF, the Kd [19] was at least 20 µM, the Kd [38, 49] was 4.2 µM and the Kd [20] was at least 5 µM. It also gave a Kd [22] of at least 5 µM and a Kd [24] of at least 5 µM.
